This is an account of results in US11826404B2, “Plasminogen treatment of conditions associated with PAI-1 overexpression” (PROMETIC BIOTHERAPEUTICS, INC., priority 2017, dated 2023).

Assay [1] concerns IL-6 mRNA. Kind of assay: IL-6 mRNA expression by real-time PCR, bleomycin model, plasminogen combined with pirfenidone (Example 3). Format: in vivo, mouse. How it is done: (§1) Male C57BL6 mice are administered intratracheal instillation of bleomycin sulphate (0.007 mg/mouse) at day 0. Human plasminogen was administered subcutaneously at day 10 and day 14, at a dose of either 6 mg/kg, 20 mg/kg, or 60 mg/kg. Animals were sacrificed at day 21. Collagen was quantified by histologic analysis using the staining Red sirus staining (Fluorescence) and analysed at a magnification of 400×. Collagen quantification was performed by segmentation with Image Pro Premier software, and using a sample of 20 fields located in the inflammatory lesions of the lungs. The quantity of collagen has been reported for the total surface of the regions containing inflammatory lesions. This method of quantification allows exclusion of the endogenous content of collagen that is normally contained in the tissue. […] CTGF, IL-6 and PAI-1 mRNA expressions were quantified by real-time PCR using mouse Taqman® Gene-Expression assay normalized to HPRT1 endogenous control (Student's t-test).
(§2) Pulmonary fibrosis in mice is induced by intratracheal instillation of the anticancer drug bleomycin into the mouse. […] Collagen was quantified by histologic analysis using the staining Red sirus staining (Fluorescence) and analysed as described in Example 2. IL-6 mRNA expression was quantified by real-time PCR using mouse Taqman® Gene-Expression assay normalized to HPRT1 endogenous control (Student's t-test).

For assay [2], the system named is collagen in the inflammatory lesions of the lungs. Kind of assay: Collagen quantification in inflammatory lesions of the lungs, bleomycin model, plasminogen combined with pirfenidone (Example 3). Conditions: bleomycin-induced mice, day 28, FIG. 8. Format: in vivo, mouse. How it is done:
as §1, §2

A further assay deals with CTGF mRNA. Kind of assay: CTGF mRNA expression by real-time PCR, bleomycin-induced pulmonary fibrosis mouse model (Example 2). Format: in vivo. The following applies: human plasminogen 6, 20 or 60 mg/kg subcutaneously at day 10 and day 14; bleomycin-induced mice; day 21; not dose-dependent; FIG. 5. An excerpt: (§3) Pulmonary fibrosis in mice is induced by intratracheal instillation of bleomycin into the mouse. Bleomycin is well-known anticancer drug. First, the bleomycin insult results in an acute inflammation as soon as day 1. Later at about day 10 to day 14, fibrotic events arise and create a chronic fibrotic condition. The bleomycin-induced mice is recognized as an animal model for pulmonary fibrosis. The evaluation of the activity of plasminogen is undertaken by treatment of the mice with plasminogen at appropriate time points. In the present study, plasminogen was administered at day 10 and day 14.
(§4) Male C57BL6 mice are administered intratracheal instillation of bleomycin sulphate (0.007 mg/mouse) at day 0. Human plasminogen was administered subcutaneously at day 10 and day 14, at a dose of either 6 mg/kg, 20 mg/kg, or 60 mg/kg. […] Collagen was quantified by histologic analysis using the staining Red sirus staining (Fluorescence) and analysed at a magnification of 400×. Collagen quantification was performed by segmentation with Image Pro Premier software, and using a sample of 20 fields located in the inflammatory lesions of the lungs. The quantity of collagen has been reported for the total surface of the regions containing inflammatory lesions. This method of quantification allows exclusion of the endogenous content of collagen that is normally contained in the tissue. […]

The test system of assay [3] is collagen in the inflammatory lesions of the lungs. Kind of assay: Collagen quantification in inflammatory lesions of the lungs, bleomycin-induced pulmonary fibrosis mouse model (Example 2). In kind it is in vivo. The following applies: human plasminogen 60 mg/kg subcutaneously at day 10 and day 14; bleomycin-induced mice; measured at day 21; FIG. 4.
Source text: as §3, §4

Assay [4] relates to IL-6 mRNA. Kind of assay: IL-6 mRNA expression by real-time PCR, bleomycin-induced pulmonary fibrosis mouse model (Example 2). The following applies: human plasminogen 6, 20 or 60 mg/kg subcutaneously at day 10 and day 14; bleomycin-induced mice; day 21; not dose-dependent; FIG. 6. Format: in vivo.
Source text: as §3, §4

The next assay deals with PAI-1 mRNA. Kind of assay: PAI-1 mRNA expression by real-time PCR, bleomycin-induced pulmonary fibrosis mouse model (Example 2). In kind it is in vivo. Conditions: human plasminogen at all doses (6, 20, 60 mg/kg) subcutaneously at day 10 and day 14; bleomycin-induced mice; day 21; FIG. 7.
Source text: as §3, §4

Take `Cc1ccc(=O)n(-c2ccccc2)c1` [pirfenidone, reference compound]: the “IL-6 expression versus non-treated bleomycin-induced mice” value in the assay with IL-6 mRNA [1] (pirfenidone alone, 400 mg/kg oral once a day from day 7 to day 27, day 28, FIG. 9) was “not significantly different”. Further, in assay [2] (pirfenidone alone, 400 mg/kg oral once a day from day 7 to day 27), the “fibrosis (collagen expression in the inflammatory lesions of the lungs)” value is reported as “efficient to reduce fibrosis”.

B1: plasminogen: Glu-plasminogen purified from pooled human plasma, purity above 95%; used in Example 2 (protein, UniProt P00747 20-810, looked up)
Plasminogen: EPLDDYVNTQGASLFSVTKKQLGAGSIEECAAKCEEDEEFTCRAFQYHSKEQQCVIMAENRKSSIIIRMRDVVLFEKKVYLSECKTGNGKNYRGTMSKTKNGITCQKWSSTSPHRPRFSPATHPSEGLEENYCRNPDNDPQGPWCYTTDPEKRYDYCDILECEEECMHCSGENYDGKISKTMSGLECQAWDSQSPHAHGYIPSKFPNKNLKKNYCRNPDRELRPWCFTTDPNKRWELCDIPRCTTPPPSSGPTYQCLKGTGENYRGNVAVTVSGHTCQHWSAQTPHTHNRTPENFPCKNLDENYCRNPDGKRAPWCHTTNSQVRWEYCKIPSCDSSPVSTEQLAPTAPPELTPVVQDCYHGDGQSYRGTSSTTTTGKKCQSWSSMTPHRHQKTPENYPNAGLTMNYCRNPDADKGPWCFTTDPSVRWEYCNLKKCSGTEASVVAPPPVVLLPDVETPSEEDCMFGNGKGYRGKRATTVTGTPCQDWAAQEPHRHSIFTPETNPRAGLEKNYCRNPDGDVGGPWCYTTNPRKLYDYCDVPQCAAPSFDCGKPQVEPKKCPGRVVGGCVAHPHSWPWQVSLRTRFGMHFCGGTLISPEWVLTAAHCLEKSPRPSSYKVILGAHQEVNLEPHVQEIEVSRLFLEPTRKDIALLKLSSPAVITDKVIPACLPSPNYVVADRTECFITGWGETQGTFGAGLLKEAQLPVIENKVCNRYEFLNGRVQSTELCAGHLAGGTDSCQGDSGGPLVCFEKDKYILQGVTSWGLGCARPNKPGVYVRVSRFVTWIEGVMRNN
As to B1, the “IL-6 mRNA expression” value with IL-6 mRNA [1] (murine plasminogen alone, 6 mg/kg subcutaneously at days 7, 10, 13, 16, 19 and 23, bleomycin-induced mice, day 28, FIG. 9) was “inhibits IL-6 mRNA expression”; in the assay with IL-6 mRNA [4] it was “significantly reduced”. Besides, in assay [2] (murine plasminogen alone, 6 mg/kg subcutaneously at days 7, 10, 13, 16, 19 and 23), the “fibrosis (collagen expression in the inflammatory lesions of the lungs)” value is given as “efficient to reduce fibrosis”. Further, in the assay with CTGF mRNA, the “mRNA expression of CTGF” value is given as “significantly reduced”. Moreover, the “collagen expression in the inflammatory lesions” value in assay [3] is reported as “significantly reduced”. In the assay on PAI-1 mRNA, the “PAI-1 mRNA expression (overexpression of PAI-1 in lungs)” value is listed as “reduced”.
